Measurements as given in patent publication US20060257938A1, “Method of screening for drugs that block ligand binding to a lipid binding protein” (priority 2005, published 2006).
Where “and” joins values, the source holds several entries; their conditions need not be identical. Equal entries are not always repeated.

Experiments:
Assay type in all cases: binding
[1] = Probe fluorescence ratio response to stearic acid relative to ADIFAB2; settings: response relative to ADIFAB2
Excerpt: In an alternate preferred embodiment, the protein is rI-FABP that has Ala substituted for Leu at position 72 (rI-FABP-L72A) with the resulting probe named ADIFAB2. […] Other probes useful in embodiments of the invention are shown in Tables 1-6 and are also described in U.S. application Ser. No. 11/085,792, filed Mar. 21, 2005 which is incorporated herein by reference. The indicated substitutions are with reference to the ADIFAB protein of SEQ ID NO: 2.
ADIFAB2 also has an altered spectral response, making it especially useful for measurements of FFAu in blood samples (Apple et al, Clinical Proteomics, (2004) 1:41-44, U.S. patent application Ser. No. 10/670,958). The wavelengths at the maximum intensities emitted by these fluorescently-labeled I-FABP's in the absence of FFA is about 420 to 480 nm. The emission wavelengths at the maximum intensities emitted by these fluorescently-labeled I-FABP's with FFA bound are between about 495 to 580 nm. Experiments typically involve measuring the fluorescence response within both emission maxima or at wavelengths for which the effect of interfering molecules such as hemoglobin can be eliminated as described in U.S. application Ser. No. 10/670958 and PCT/US2004/030521 and the calculation of the ratio ‘R’ of the two fluorescence intensities. The baseline value for this ratio, measured in the absence of analyte, is designated R0.
The intensity ratio (“R” value) is determined as follows. The ratio is calculated using the following formula: R=Fλ1/Fλ2 wherein, Fλ1 is the measured fluorescence intensities (intensity of sample with probe present minus intensity of sample without probe present) at wavelength 1 and Fλ2 is the measured fluorescence intensities (intensity of sample with probe present minus intensity of sample without probe present) at wavelength 2. Then, for a given probe, ΔR, the difference in R value between the measurement in the presence of the test compound (agent) and in the absence of the test compound (agent), is calculated as follows: ΔR=R+agent−R0 In some embodiments, the ΔR value may then be compared to some reference, for example, an agent with a known affinity for a given probe, by ΔR/ΔRreference. Measurements of fluorescence intensities are obtained using standard techniques.

[2] = Probe fluorescence ratio response to arachidonic acid relative to ADIFAB2; settings: for ΔR/DRAΔ2 AA: Table 4, Arachidonic acid
How it was run: (§1)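 Each fatty acid's response was expressed relative to ADIFAB2, the rI-FABP-L72A probe, as ΔR/ΔRreference. ΔR is the change in the background-corrected two-wavelength intensity ratio R=Fλ1/Fλ2 from its analyte-free baseline R0. Emission was read near about 420-480 nm for unbound and about 495-580 nm for FFA-bound probe.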

[3] = Probe fluorescence ratio response to linolenic acid relative to ADIFAB2; settings: Table 4
How it was run: as §1

[4] = Probe fluorescence ratio response to palmitic acid relative to ADIFAB2; settings: Table 4
How it was run: as §1

[5] = Probe fluorescence ratio response to oleic acid relative to ADIFAB2; settings: Table 4
How it was run: as §1

[6] = Probe fluorescence ratio response to linoleic acid relative to ADIFAB2; settings: Table 4
How it was run: as §1

Molecule	DR/DR SA [1]	DR/DR AA ([2]; arachidonic acid, response relative to ADIFAB2)	ΔR/DRAΔ2 LNA [3]	ΔR/DRAΔ2 AA [2]	ΔR/DRAΔ2 PA [4]	ΔR/DRAΔ2 OA [5]	ΔR/DRAΔ2 LA [6]
18L 73V 72A (protein, listed as Rattus norvegicus, PEPTIDE (1)...(131) wild-type rat intestinal fatty acid binding protein) AFDGTWKVDRNENYEKFLEKMGINVVKRKLGAHDNLKLTITQEGNKFTVKESSNFRNIDVVFELGVDFAYSAVDGTELTGTWTMEGNKLVGKFKRVDNGKELIAVREISGNELIQTYTYEGVEAKRIFKKE	0.359 and 0.427	0.615 and 0.475	–	–	–	–	–
L1P1C3: FABP probe, substitutions Y14M L72W vs SEQ ID NO: 2 (protein, listed as Rattus norvegicus, PEPTIDE (1)...(131) wild-type rat intestinal fatty acid binding protein) AFDGTWKVDRNENMEKFMEKMGINVVKRKLGAHDNLKLTITQEGNKFTVKESSNFRNIDVVFELGVDFAYSWADGTELTGTWTMEGNKLVGKFKRVDNGKELIAVREISGNELIQTYTYEGVEAKRIFKKE	–	–	−1.0	−0.9	−0.4	−1.3	−1.1
L1P14A9: FABP probe, substitutions Y14L L72G Y117I vs SEQ ID NO: 2 (protein, listed as Rattus norvegicus, PEPTIDE (1)...(131) wild-type rat intestinal fatty acid binding protein) AFDGTWKVDRNENLEKFMEKMGINVVKRKLGAHDNLKLTITQEGNKFTVKESSNFRNIDVVFELGVDFAYSGADGTELTGTWTMEGNKLVGKFKRVDNGKELIAVREISGNELIQTITYEGVEAKRIFKKE	–	–	0.8	0.8	0.2	0.4	0.8
L1P7H4: FABP probe, substitutions Y14I L38M L72W vs SEQ ID NO: 2 (protein, listed as Rattus norvegicus, PEPTIDE (1)...(131) wild-type rat intestinal fatty acid binding protein) AFDGTWKVDRNENIEKFMEKMGINVVKRKLGAHDNLKMTITQEGNKFTVKESSNFRNIDVVFELGVDFAYSWADGTELTGTWTMEGNKLVGKFKRVDNGKELIAVREISGNELIQTYTYEGVEAKRIFKKE	–	–	−1.1	−1.0	−0.6	−1.4	−1.3
L1P17A8: FABP probe, substitutions L38M L72G Y117F vs SEQ ID NO: 2 (protein, listed as Rattus norvegicus, PEPTIDE (1)...(131) wild-type rat intestinal fatty acid binding protein) AFDGTWKVDRNENYEKFMEKMGINVVKRKLGAHDNLKMTITQEGNKFTVKESSNFRNIDVVFELGVDFAYSGADGTELTGTWTMEGNKLVGKFKRVDNGKELIAVREISGNELIQTFTYEGVEAKRIFKKE	–	–	0.7	1.3	0.4	0.7	0.8
L1P17A1: FABP probe, substitutions Y14I L72W vs SEQ ID NO: 2 (protein, listed as Rattus norvegicus, PEPTIDE (1)...(131) wild-type rat intestinal fatty acid binding protein) AFDGTWKVDRNENIEKFMEKMGINVVKRKLGAHDNLKLTITQEGNKFTVKESSNFRNIDVVFELGVDFAYSWADGTELTGTWTMEGNKLVGKFKRVDNGKELIAVREISGNELIQTYTYEGVEAKRIFKKE	–	–	−0.9	−0.8	−0.4	−1.2	−1.0
L1P11F12: FABP probe, substitutions Y14L L38I vs SEQ ID NO: 2 (protein, listed as Rattus norvegicus, PEPTIDE (1)...(131) wild-type rat intestinal fatty acid binding protein) AFDGTWKVDRNENLEKFMEKMGINVVKRKLGAHDNLKITITQEGNKFTVKESSNFRNIDVVFELGVDFAYSLADGTELTGTWTMEGNKLVGKFKRVDNGKELIAVREISGNELIQTYTYEGVEAKRIFKKE	–	–	1.2	1.0	0.7	0.7	1.1
L1P9G10: FABP probe, substitutions L38I L72G vs SEQ ID NO: 2 (protein, listed as Rattus norvegicus, PEPTIDE (1)...(131) wild-type rat intestinal fatty acid binding protein) AFDGTWKVDRNENYEKFMEKMGINVVKRKLGAHDNLKITITQEGNKFTVKESSNFRNIDVVFELGVDFAYSGADGTELTGTWTMEGNKLVGKFKRVDNGKELIAVREISGNELIQTYTYEGVEAKRIFKKE	–	–	0.7	1.0	0.4	0.9	0.8
L1P16G10: FABP probe, substitutions Y14W L72M Y117A vs SEQ ID NO: 2 (protein, listed as Rattus norvegicus, PEPTIDE (1)...(131) wild-type rat intestinal fatty acid binding protein) AFDGTWKVDRNENWEKFMEKMGINVVKRKLGAHDNLKLTITQEGNKFTVKESSNFRNIDVVFELGVDFAYSMADGTELTGTWTMEGNKLVGKFKRVDNGKELIAVREISGNELIQTATYEGVEAKRIFKKE	–	–	1.3	0.9	0.8	0.7	1.1
L1P5A10: FABP probe, substitution Y117A vs SEQ ID NO: 2 (protein, listed as Rattus norvegicus, PEPTIDE (1)...(131) wild-type rat intestinal fatty acid binding protein) AFDGTWKVDRNENYEKFMEKMGINVVKRKLGAHDNLKLTITQEGNKFTVKESSNFRNIDVVFELGVDFAYSLADGTELTGTWTMEGNKLVGKFKRVDNGKELIAVREISGNELIQTATYEGVEAKRIFKKE	–	–	0.7	1.5	0.4	1.1	1.2
L1P1F7: FABP probe, substitutions Y14L L38M Y117F vs SEQ ID NO: 2 (protein, listed as Rattus norvegicus, PEPTIDE (1)...(131) wild-type rat intestinal fatty acid binding protein) AFDGTWKVDRNENLEKFMEKMGINVVKRKLGAHDNLKMTITQEGNKFTVKESSNFRNIDVVFELGVDFAYSLADGTELTGTWTMEGNKLVGKFKRVDNGKELIAVREISGNELIQTFTYEGVEAKRIFKKE	–	–	1.0	0.9	0.5	0.5	0.9
L1P8H2: FABP probe, substitutions Y14M L38M L72W vs SEQ ID NO: 2 (protein, listed as Rattus norvegicus, PEPTIDE (1)...(131) wild-type rat intestinal fatty acid binding protein) AFDGTWKVDRNENMEKFMEKMGINVVKRKLGAHDNLKMTITQEGNKFTVKESSNFRNIDVVFELGVDFAYSWADGTELTGTWTMEGNKLVGKFKRVDNGKELIAVREISGNELIQTYTYEGVEAKRIFKKE	–	–	−1.3	−1.3	−0.6	−1.7	−1.5
L1P8D4: FABP probe, substitutions Y14M L72M Y117A vs SEQ ID NO: 2 (protein, listed as Rattus norvegicus, PEPTIDE (1)...(131) wild-type rat intestinal fatty acid binding protein) AFDGTWKVDRNENMEKFMEKMGINVVKRKLGAHDNLKLTITQEGNKFTVKESSNFRNIDVVFELGVDFAYSMADGTELTGTWTMEGNKLVGKFKRVDNGKELIAVREISGNELIQTATYEGVEAKRIFKKE	–	–	2.0	1.6	0.9	1.1	2.0
